First the molecules themselves.
B1: Sterol regulatory element-binding protein cleavage-activating protein (Cricetulus griseus (Chinese hamster)), P97260 (parent)
chain: MTLTERLREKISQAFYNHGLLCASYPIPIILFTGLCILACCYPLLKLPLPGTGPVEFSTPVKDYSPPPVDSDHKQGEPSEQPEWYVGAPVAYIQQIFVKSSVSPWHKNLLAVDVFRLPLSRAFQLVEEIRNHVLRDSSGTKSLEEVCLQVTDLLPGLRKLRNLLPEHGCLLLSPGNFWQNDWERFHADPDIIGTIHQHEPKTLQTSATLKDLLFGVPGKYSGVSLYTRKRTVSYTITLVFQRYHAKFLSSLRARLMLLHPSPNCSLRAENLVHVHFKEEIGIAELIPLVTTYIILFAYIYFSTRKIDMVKSKWGLALAAVVTVLSSLLMSVGLCTLFGLTPTLNGGEIFPYLVVVIGLENVLVLTKSVVSTPVDLEVKLRIAQGLSSESWSIMKNVATELGIILIGYFTLVPAIQEFCLFAVVGLVSDFFLQMFFFTTVLSIDIRRMELADLNKRLPPESCLPSAKPVGRPARYERQLAVRPAMPHTITLQPSSFRNLRLPKRLRVIYFLARTRLAQRLIMAGTVVWIGILVYTDPAGLRTYLAAQVTEQSPLGEGSLGPMPVPSGVLPASRPDPAFSIFPPDAPKLPENQTVPGELPEHAAPAEGVHDSRAPEVTWGPEDEELWRRLSFRHWPTLFNYYNITLAKRYISLLPVIPVTLRLNPQEALEGRQPQDGRSAWAPPESLPAGLWEAGPKGPGGTQAHGDITLYKVAALGLAAGIVLVLLLLCLYRVLCPRNYGQPGGGAGRRRRGELPCDDYGYAPPETEIVPLVLRGHLMDIECLASDGMLLVSCCLAGQVCVWDAQTGDCLTRIPRPGSRRDSCGGGAFETQENWERLSDGGKTSPEEPGESPPLRHRPRGPPQPALFGDQPDLTCLIDTNFSVQLPPEPTQPEPRHRAGCGRARDSGYDFSRLVQRVYQEEGLAAVRMPALRPPSPGSPLPQASQEDGAAPEKGSPPLAWAPSTAGSIWSLELQGNLIVVGRSSGRLEVWDAIEGVLCCSNDEVSSGITALVFLDRRIVAARLNGSLDFFSLETHTSLSPLQFRGTPGRGSSPSSSVYSSSNTVACHLTHTVPCAHQKPITALRAAAGRLVTGSQDHTLRVFRLEDSCCLFTLQGHSGAITTVYIDQTMVLASGGQDGAICLWDVLTGSRVSHTFAHRGDVTSLTCTTSCVISSGLDDLINIWDRSTGIKLYSIQQDLGCGASLGVISDNLLVTGGQGCVSFWDLNYGDLLQTVYLGKNSEAQPARQILVLDNAAIVCNFGSELSLVYVPSVLEKLD
partner: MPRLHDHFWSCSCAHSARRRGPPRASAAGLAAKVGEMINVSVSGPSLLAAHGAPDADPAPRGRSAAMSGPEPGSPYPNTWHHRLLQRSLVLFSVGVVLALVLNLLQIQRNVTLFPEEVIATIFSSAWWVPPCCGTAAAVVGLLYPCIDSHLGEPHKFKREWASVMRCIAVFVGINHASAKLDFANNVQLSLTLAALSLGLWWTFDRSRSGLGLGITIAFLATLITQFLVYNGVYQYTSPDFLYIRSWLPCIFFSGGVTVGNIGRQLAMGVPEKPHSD

In the test the parent is B1. To be noted: with insi1_human INSIG1, O15503.
Consider N263E;N590E;N641E, for which the “effect of a mutation on the interaction” value is “increasing interaction strength”.
